The supplement of paper PMC10567573

B1: GLTSCR2 (parent)
chain: LARRRRRRQARREAEADKPRRLGR

Variants of: B1
Experiment: protein stability index of a GFP-peptide fusion (GPS, HEK-293T) (PSI 1-6); higher = more stable
Details: c terminus: a fixed tail appended
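Also: lentivirally expressed fusions sorted by FACS into six bins by GFP to DsRed ratio, PSI derived from sequencing read proportions per bin multiplied by bin number.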

Protein stability index, by site and new letter:
R4: A 4.39; Q 4.18; N 4.63; P 4.92; L 4.59; V 3.97; I 4.46; G 4.3; Y 4.16; C 4.34; K 3.13; M 4.57; W 3.11; S 4.17; D 4.64; E 5.25; H 4.35; T 4.67; F 3.75
R8: T 4.21; G 4.25; E 4.83; P 4.44; W 4.48; I 4.3; A 4.98; Y 4.15; N 4.48; F 4.64; Q 4.23; D 4.83; K 4.3; C 3.8; S 5.01; H 4.75; V 4.18; M 4.98; L 3.48
Q9: W 3.71; V 4.22; P 4.85; M 3.79; L 4.66; A 4.17; D 4.44; H 4.73; T 5.12; E 4.38; K 4.33; Y 4.33; F 4.27; I 4.75; C 4.4; G 4.46; N 4.47; R 4.95; S 4.57
R3: Y 3.84; T 4.84; W 4.4; V 4.35; S 4.91
A10: K 4.02; E 4.55; F 4.47; M 5.21; R 4.95; Q 4.95; C 5.01; G 4.25; V 4.57; H 5.1; L 4.38; T 4.21; N 4.6; D 3.92; P 5.19; I 4.55; S 4.66; W 4.73; Y 4.9
R6: H 4.28; V 3.6; E 4.03; M 4.27; G 4.55; N 5.07; P 4.57; T 4.69; Y 4.13; Q 5.03; I 3.98; W 4.74; D 4.96; A 5.21; K 4.79; C 4.5; S 4.86; L 4.6; F 3.93
R11: F 4.09; K 4.52; L 5.4; T 5.06; P 4.62; I 4.8; Y 4.95; G 3.7; E 4.87; Q 4.26; A 4.53; V 4.91; S 4.74; W 4.53; M 4.47; C 4.64; H 4.74; N 3.94
R5: F 4.76; Q 4.33; Y 4.45; P 5.1; K 4.54; G 4.36; W 4.12; L 3.81; N 5.32; M 4.36; D 4.52; H 4.18; V 4.54; I 3.79; S 4.42; T 4.15; E 5.13; A 4.69; C 4.21
R12: G 4.45; D 4.73; K 4.55; E 4.29; I 4.72; A 4.71; H 4.74; C 4.31; L 3.76; F 4.17; M 4.87; N 4.11
R7: Q 4.19; F 4.28; K 5.11; S 4.66; E 4.93; I 4.41; M 5.22; C 4.83; T 4.76; A 4.18; G 4.71; Y 4.64; N 4.83; V 4.6; W 4.63; H 4.73; L 4.76; D 4.88
